The experiment concerns Jurkat cells. The experiment in a line: Tacrolimus dose response of FKBP13-AcGFP-mCherry constructs stably transduced into Jurkat cells, GFP MFI by flow cytometry. To be noted: for DRD function after abrogating the disulfide bonds: FIG. 4; for basal AcGFP expression: absence of tacrolimus. The format is cell-based. Also on record: Basal: unit not given here. As for the experimental part:
The regulation of AcGFP, from FKBP13-AcGFP-mCherry constructs, in Jurkat cells, was also studied. Jurkat Clone E6-1 cells were cultured in standard media (RPMI+GlutaMAX Supplement (Life Technologies, Carlsbad, CA Cat #61870127), Fetal Bovine Serum (FBS) (Life Technologies Cat #10-082-147)). Jurkat cells were transduced with lentivirus produced with each of FKBP-039, FKBP-040, FKBP-041, FKBP-042, FKBP-043, FKBP-044, or FKBP-045 constructs. Jurkat cells were transduced until they were 10-25% positive, as determined on day 5 post-transduction, by using mCherry as a transduction marker. […] The Geometric Mean Fluorescent Intensity (MFI) of GFP expression in mCherry+ cells was plotted and dose response curve fits were performed using Prism Software (San Diego, CA).
FKBP-091 was used as a comparative construct.
FIGS. 22-38 show the results of characterization of FKBP-160-292. […] FKBP-091 and FKBP-117 was used as a comparative control for FKBP-160-FKBP-255. FKBP-195 was used as a comparative control for FKBP-256-FKBP-275. FKBP-117, FPBP-195 and FKBP-251 were used as a comparative control for FKBP-276-FKBP-292.
FKBP mutants were cloned in a manner to make a fusion protein with AcGFP in order to assess FKBP mutant regulation by using AcGFP expression as a readout. […] Further iterative FKBP mutants (FKBP-256-FKBP-292) were constructed from these initial combinatorial mutants to see if we could further improve FKBP DRD properties.
(In general: In flow cytometry, cells or beads pass a laser one at a time.)

Setting [1] is: tacrolimus dose response, Jurkat cells stably transduced (FIG. 4), Table 4.
Setting [2] is: tacrolimus, Jurkat cells, Table 13.

B1: FKBP-062: FKBP13 DRD Q72R, Q84E, A117H, M54A, [−]disulfide; SEQ ID NO: 18 (protein)
chain: HSPIKSRKGDVLHAHYTGKLEDGTEFDSSLPRNQPFVFSLGTGEVIKGWDQGLLGMSEGEKRKLVIPSELGYGERGHPPKIPGGATLVFEVELLKIER
modifications: disulfide removed; Description of sequence: FKBP13-AcGFP-mCherry Fusion; Construct Name: FKBP-062; FKBP13 DRD in Construct : FKBP13 (mutated to match FKBP12 active site - Q72R Q84E A117H) (DRD - M54A [-]disulfide)
With B1, under “tacrolimus dose response”, the “DRD function after abrogating the disulfide bonds” value is “did not create a significant difference in DRD function”. Also, the Fold Change under setting [1] stood at 10.4.

B2: FKBP-059: FKBP13 DRD Q72R, Q84E, A117H, L93A; SEQ ID NO: 15 (protein)
chain: HCPIKSRKGDVLHMHYTGKLEDGTEFDSSLPRNQPFVFSLGTGEVIKGWDQGALGMCEGEKRKLVIPSELGYGERGHPPKIPGGATLVFEVELLKIER
modifications: Description of sequence: FKBP13-AcGFP-mCherry Fusion; Construct Name: FKBP-059; FKBP13 DRD in Construct : FKBP13 (mutated to match FKBP12 active site - Q72R Q84E A117H) (DRD - L93A)
For B2, the Fold Change stood at 27.3 under setting [1] and 31.085 (tacrolimus dose response, Jurkat cells stably transduced (FIG. 10), Table 5).

B3: FKBP-060: FKBP13 DRD Q72R, Q84E, A117H, L104A; SEQ ID NO: 16 (protein)
chain: HCPIKSRKGDVLHMHYTGKLEDGTEFDSSLPRNQPFVFSLGTGEVIKGWDQGLLGMCEGEKRKAVIPSELGYGERGHPPKIPGGATLVFEVELLKIER
modifications: Description of sequence: FKBP13-AcGFP-mCherry Fusion; Construct Name: FKBP-060; FKBP13 DRD in Construct : FKBP13 (mutated to match FKBP12 active site - Q72R Q84E A117H) (DRD - L104A)
For the molecule B3, the Fold Change under setting [1] is listed as 2.7.

B4: FKBP-055: FKBP13 DRD Q72R, Q84E, A117H, F78V; SEQ ID NO: 11 (protein)
chain: HCPIKSRKGDVLHMHYTGKLEDGTEFDSSLPRNQPFVVSLGTGEVIKGWDQGLLGMCEGEKRKLVIPSELGYGERGHPPKIPGGATLVFEVELLKIER
modifications: Description of sequence: FKBP13-AcGFP-mCherry Fusion; Construct Name: FKBP-055; FKBP13 DRD in Construct : FKBP13 mutated to match FKBP12 active site - (Q72R Q84E A117H) (DRD - F78V)
As for B4, the Fold Change under setting [1] was found to be 9.0.

B5: FKBP-272: constructed from FKBP-195 by changing the K135Y mutation to K135L (protein)
chain: HCPIKSRKGDVLHMHYTGKLEDGTEFDSSLPRNQPFVFSLGTGERIKGWDQGLLGMCEGEKRKLVIPSELGYGERGWPPKIPGGATLVFEVELLLIER
modifications: Description of sequence: Construct Name: FKBP-272; Mutation(s): Q72R Q84E A117W V85R DRD K135L
notes: constructed from FKBP-195 by changing the K135Y mutation to K135L
On to B5, for which the “basal AcGFP expression” value is reported as “lower basal AcGFP expression”. Besides, under “FIG. 39”, the Basal was 71.5, the FC was found to be 85 and the Peak stood at 5857. In addition, under “FIG. 50”, the Basal is 55.6, the FC worked out at 105.86 and the “At 10 uM” value worked out at 5886. Besides, the “Fold Change” value under setting [2] is listed as 105.86.

B6: FKBP-263: based on FKBP-215 removing the M54A mutation (protein)
chain: HCRIKSRKGDVLHMHYTGKLEDGTEFDSSLPRNQPFVFSLGTGGRIKGWDQGLLGMCEGEKRKLVIPSELGYGERGWPPKIPGGATLVFEVELLYIER
modifications: Description of sequence: Construct Name: FKBP-263; Mutation(s): Q72R Q84G A117W V85R DRD P43R K135Y
notes: based on FKBP-215 removing the M54A mutation
For the molecule B6, the “basal AcGFP expression” value was “retained the low basal AcGFP expression”. For the same molecule, for the setting “FIG. 49, BR1 (Biorep 1)”, the Basal was determined as 56, the FC came to 49.02 and the “At 10 uM” value was found to be 2745. For the same molecule, for the setting “FIG. 49, BR2 (Biorep 2)”, the Basal is on record as 63.3, the FC was found to be 45.75 and the “At 10 uM” value turned out to be 2896. Also, the FC (tacrolimus, FIGS. 31 and 32) was found to be 56. Besides, the “Fold Change” value under setting [2] is reported as 56.

B7: FKBP-057: FKBP13 DRD Q72R, Q84E, A117H, I106A; SEQ ID NO: 13 (protein)
chain: HCPIKSRKGDVLHMHYTGKLEDGTEFDSSLPRNQPFVFSLGTGEVIKGWDQGLLGMCEGEKRKLVAPSELGYGERGHPPKIPGGATLVFEVELLKIER
modifications: Description of sequence: FKBP13-AcGFP-mCherry Fusion; Construct Name: FKBP-057; FKBP13 DRD in Construct : FKBP13 (mutated to match FKBP12 active site - Q72R Q84E A117H) (DRD - I106A)
For the molecule B7, the Fold Change under setting [1] is given as 2.7.

B8: FKBP-053: FKBP13 DRD Q72R, Q84E, A117H, D90G, F66H; SEQ ID NO: 9 (protein)
chain: HCPIKSRKGDVLHMHYTGKLEDGTEHDSSLPRNQPFVFSLGTGEVIKGWGQGLLGMCEGEKRKLVIPSELGYGERGHPPKIPGGATLVFEVELLKIER
modifications: Description of sequence: FKBP13-AcGFP-mCherry Fusion; Construct Name: FKBP-053; FKBP13 DRD in Construct : FKBP13 (mutated to match FKBP12 active site - Q72R Q84E A117H) (DRD - D90G F66H)
On to B8, for which the Fold Change under setting [1] turned out to be 1.0.

B9: FKBP-054: FKBP13 DRD Q72R, Q84E, A117H, D90G, L127K; SEQ ID NO: 10 (protein)
chain: HCPIKSRKGDVLHMHYTGKLEDGTEFDSSLPRNQPFVFSLGTGEVIKGWGQGLLGMCEGEKRKLVIPSELGYGERGHPPKIPGGATKVFEVELLKIER
modifications: Description of sequence: FKBP13-AcGFP-mCherry Fusion; Construct Name: FKBP-054; FKBP13 DRD in Construct : FKBP13 (mutated to match FKBP12 active site - Q72R Q84E A117H) (DRD - D90G L127K)
Molecule B9 displayed a Fold Change under setting [1] of 0.9.

B10: FKBP-063: FKBP13 DRD Q72R, Q84E, A117H, M54A, C42S; SEQ ID NO: 19 (protein)
chain: HSPIKSRKGDVLHAHYTGKLEDGTEFDSSLPRNQPFVFSLGTGEVIKGWDQGLLGMCEGEKRKLVIPSELGYGERGHPPKIPGGATLVFEVELLKIER
modifications: Description of sequence: FKBP13-AcGFP-mCherry Fusion; Construct Name: FKBP-063; FKBP13 DRD in Construct : FKBP13 (mutated to match FKBP12 active site - Q72R Q84E A117H) (DRD - M54A C42S )
Consider B10, for which the “DRD function after abrogating the disulfide bonds” value (tacrolimus dose response) was “did not create a significant difference in DRD function”. The molecule further came in with a Fold Change under setting [1] of 7.3.

B11: FKBP-058: FKBP13 DRD Q72R, Q84E, A117H, L52A; SEQ ID NO: 14 (protein)
chain: HCPIKSRKGDVAHMHYTGKLEDGTEFDSSLPRNQPFVFSLGTGEVIKGWDQGLLGMCEGEKRKLVIPSELGYGERGHPPKIPGGATLVFEVELLKIER
modifications: Description of sequence: FKBP13-AcGFP-mCherry Fusion; Construct Name: FKBP-058; FKBP13 DRD in Construct : FKBP13 (mutated to match FKBP12 active site - Q72R Q84E A117H) (DRD - L52A)
B11 returned a Fold Change under setting [1] of 8.1.

B12: FKBP-056: FKBP13 DRD Q72R, Q84E, A117H, F129K; SEQ ID NO: 12 (protein)
chain: HCPIKSRKGDVLHMHYTGKLEDGTEFDSSLPRNQPFVFSLGTGEVIKGWDQGLLGMCEGEKRKLVIPSELGYGERGHPPKIPGGATLVKEVELLKIER
modifications: Description of sequence: FKBP13-AcGFP-mCherry Fusion; Construct Name: FKBP-056; FKBP13 DRD in Construct : FKBP13 (mutated to match FKBP12 active site - Q72R Q84E A117H) (DRD - F129K)
On to B12, for which the Fold Change under setting [1] is given as 1.0.

Source of the values: patent publication US20250186614A1, “COMPACT DRUG RESPONSIVE DOMAINS FOR REGULATION OF FUNCTION/ABUNDANCE AND DELIVERY OF POLYPEPTIDE PAYLOADS” (OBSIDIAN THERAPEUTICS, INC., priority 2022, published 2025).
